Laboratory results: patent US11732029B2, “Methods and compositions for the treatment of wounds” (The University of Chicago, priority 2017, dated 2023)
Read-outs that look alike come from different tables or passages of the source.

How the values were obtained:
[1] = Ishihara et al. 2018; Martino et al. 2013; cited from earlier work
[2] = Heparin binding to synthesized laminin peptides (ELISA); parameters: key to Interaction with Heparin: ++ indicates high affinities; + indicates medium/low affinities
Experimental: (§1) ELISA tests were performed as described above. In brief, ELISA plates were coated with 1 μg/mL of laminin alpha 3 LG domain recombinant protein, laminin alpha 4 LG domain recombinant protein (R&D systems), laminin alpha 5 LG domain recombinant protein (LD BioPharma), or laminin peptide (sequences are described in Table 1, chemically synthesized by Genscript) in PBS for 2 hrs at 37° C. 1 μg/mL of BSA served as non-binding protein control. After blocking with 2% BSA PBS-0.05% Tween 20 (PBS-T) solution, 1 μg/mL of the recombinant human proteins (VEGF-A121, VEGF-A165, PlGF-1, PlGF-2, PDGF-BB or FGF-2) or 10 μg/mL of biotinylated heparin (Sigma-Aldrich) were added. Bound GF was detected with biotinylated antibodies for human VEGF, PlGF, PDGF-BB, or FGF-2 (R&D Systems). The antibodies were detected by streptavidin-HRP (R&D Systems).

[3] = test system: HUVEC cells; assay: Migration assay (transwell); assay type: cell-based, human; settings: 6 hr, 30 ng/mL VEGF-A165 with or without 0.1 μM peptide
Experimental: A migration assay was performed as described previously^3. A QCM 24-Well Colorimetric Cell Migration Assay kit was used to perform migration assay. Both sides of inserts were coated with 0.1 μM of bovine collagen I (C4243, Sigma-Aldrich) for 1 hr at 37° C. Then, the inserts were washed with water, dried in a laminar flow cabinet and disposed on 24-well cell culture plate covers. Solutions containing 30 ng/mL of VEGF-A165 preincubated with or without 0.1 μM of α33043-3067 peptide in medium (MCDB-131, 0.05% BSA) were added to the bottom side of the transwell (500 μL/well). Directly thereafter, HUVEC cells in medium containing 0.05% BSA (300 μL/transwell, 4×10^4 cells/transwell) were added to the transwell upper parts. After 6 hr, migrated cells were stained and absorbance at 560 nm was measured according to the manufacturer's instructions.

[4] = target: T1, VEGF-A165 (Homo sapiens, UniProt P15692); assay: GF binding to recombinant laminin LG domain protein and synthesized laminin HBD peptides (ELISA); settings: plate coated with LG domain protein or peptide, 1 μg/mL GF, vs BSA-coated wells
T1 construct: All growth factors (GFs) and chemokines were purchased in their mature forms; purchased PeproTech; host or cells: Escherichia coli
T1 sequence (P15692 27-191 isoform P15692-4 limits assumed): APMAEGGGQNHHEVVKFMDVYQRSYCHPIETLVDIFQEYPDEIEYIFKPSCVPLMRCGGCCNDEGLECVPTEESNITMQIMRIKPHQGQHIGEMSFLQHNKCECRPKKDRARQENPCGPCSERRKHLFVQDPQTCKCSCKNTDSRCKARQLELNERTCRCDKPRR
Experimental: as §1

[5] = target: T2, PDGF-BB (Homo sapiens, UniProt P01127); assay: as above; settings: plate coated with LG domain protein or peptide, 1 μg/mL GF, vs BSA-coated wells
T2 construct: All growth factors (GFs) and chemokines were purchased in their mature forms; purchased PeproTech; host or cells: Escherichia coli
Experimental: as §1

[6] = test system: HUVEC; assay: Cell adhesion assay, HUVEC on laminin peptide coated plates; assay type: cell-based, human; parameters: key to Cell adhesion HUVECs: ++ indicates high affinities; + indicates medium/low affinities
Experimental: (§2) 96-well plates (non-tissue culture treated, Greiner Bio-one) were pre-coated with 1 μg/mL with laminin HBD peptides in PBS for 2 hrs at 37° C., followed by blocking with 2% BSA PBS for 1 h at RT. Cell adhesion assays were performed using human lung fibroblasts (Lonza) in FGM-2 medium (Lonza) or human umbilical vein endothelial cells (HUVEC; Lonza) in EGM-2 medium (Lonza) supplemented with 1% fetal bovine serum (FBS) and […] VEGF-A165, with or without 5 mM EDTA (Sigma-Aldrich). Cells were plated at 3000 cells/well on laminin peptide pre-coated plates and incubated for 30 min at 37° C., 5% CO2. Then, the medium was removed, and wells were quickly washed three times with PBS. Cell numbers were quantified using a CyQUANT assay, according to the manufacturer's instructions (Invitrogen). All cell lines were checked for mycoplasma contamination and used in passages from 5 to 8.

[7] = test system: human lung fibroblasts; assay: Cell adhesion assay, fibroblasts on laminin peptide coated plates; assay type: cell-based; parameters: key to Cell adhesion Fibroblasts: ++ indicates high affinities; + indicates medium/low affinities
Experimental: as §2

[8] = target: FGF-2 (Homo sapiens, UniProt P09038); assay: GF binding to recombinant laminin LG domain protein and synthesized laminin HBD peptides (ELISA); parameters: All growth factors (GFs) and chemokines were purchased in their mature forms; purchased PeproTech; host or cells: Escherichia coli; settings: plate coated with LG domain protein or peptide, 1 μg/mL GF, vs BSA-coated wells
Experimental: as §1

[9] = target: T3, PlGF-2 (Homo sapiens, UniProt P49763); assay: as above; parameters: All growth factors (GFs) and chemokines were purchased in their mature forms; purchased PeproTech; host or cells: Escherichia coli; settings: plate coated with LG domain protein or peptide, 1 μg/mL GF, vs BSA-coated wells
T3 sequence (P49763 19-170 isoform P49763-3 limits assumed): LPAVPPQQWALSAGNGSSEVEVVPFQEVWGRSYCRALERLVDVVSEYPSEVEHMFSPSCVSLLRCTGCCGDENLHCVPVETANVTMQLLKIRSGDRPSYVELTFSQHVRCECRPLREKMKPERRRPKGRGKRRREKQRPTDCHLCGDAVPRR
Experimental: as §1

[10] = test system: GFs; assay: GF binding to synthesized laminin peptides (ELISA), all tested GFs together; parameters: species or system human; key to Interaction with GFs: ++ indicates high affinities; + indicates medium/low affinities; settings: summary Table 2
Experimental: as §1

[11] = test system: syndecan-1, syndecan-2, syndecan-3, syndecan-4; assay: Recombinant syndecan binding to synthesized laminin HBD peptides (ELISA); parameters: species or system human; key to Interaction with Syndecans: ++ indicates high affinities; + indicates medium/low affinities
Experimental: ELISA tests were performed as described above. In brief, ELISA plates were coated with 1 μg/mL laminin peptide (sequences are described in Table 1, chemically synthesized by Genscript) in PBS for 2 hrs at 37° C. 1 μg/mL of BSA served as non-binding protein control. After blocking with 2% BSA PBS-T solution, 1 μg/mL of the recombinant human syndecan-1, syndecan-2, syndecan-3, syndecan-4 (all syndecan proteins are histidine-tagged; SinoBiological) were added. Bound GF was detected with anti-histidine tag antibody (1:1000 dilution, BioLegend).

[12] = target: T1, VEGF-A165; assay: Surface plasmon resonance, laminin against GF; settings: SPR; laminin protein immobilized on chip, GF flowed; Langmuir binding kinetics
Experimental: (§3) SPR analysis was performed as described previously^2. In brief, measurements were made with a Biacore 3000 SPR system (GE Healthcare). Laminin-521 or laminin α32928-3150 was immobilized via amine coupling on a C1 chip (GE Healthcare) for ˜2000 or ˜1000 resonance units (RU), respectively, according to the manufacturer's instructions. VEGF-A165, PDGF-BB, or PlGF-2 was flowed at increasing concentrations in the running buffer at 20 μL/min. The sensor chip was regenerated with 50 mM NaOH for every cycle. Specific bindings of GFs to laminin were calculated by comparison to a non-functionalized channel used as a reference. Experimental results were fitted with Langmuir binding kinetics using BIAevaluation software (GE Healthcare).

[13] = target: T2, PDGF-BB; assay: Surface plasmon resonance, laminin against GF; settings: SPR; laminin protein immobilized on chip, GF flowed; Langmuir binding kinetics
Experimental: as §3

[14] = target: T4, PlGF-1 (Homo sapiens, UniProt P49763); assay: GF binding to recombinant laminin LG domain protein and synthesized laminin HBD peptides (ELISA); parameters: All growth factors (GFs) and chemokines were purchased in their mature forms; purchased PeproTech; host or cells: Escherichia coli; settings: plate coated with LG domain protein or peptide, 1 μg/mL GF, vs BSA-coated wells
T4 sequence (P49763 19-149 isoform P49763-2 limits assumed): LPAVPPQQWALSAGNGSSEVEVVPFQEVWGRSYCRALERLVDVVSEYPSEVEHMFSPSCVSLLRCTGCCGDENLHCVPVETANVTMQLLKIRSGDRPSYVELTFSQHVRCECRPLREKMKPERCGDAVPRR
Experimental: as §1

[15] = target: T5, VEGF-A121 (Homo sapiens, UniProt P15692); assay: as above; parameters: All growth factors (GFs) and chemokines were purchased in their mature forms; purchased PeproTech; host or cells: Escherichia coli; settings: plate coated with LG domain protein or peptide, 1 μg/mL GF, vs BSA-coated wells
T5 sequence (P15692 27-147 isoform P15692-9 limits assumed): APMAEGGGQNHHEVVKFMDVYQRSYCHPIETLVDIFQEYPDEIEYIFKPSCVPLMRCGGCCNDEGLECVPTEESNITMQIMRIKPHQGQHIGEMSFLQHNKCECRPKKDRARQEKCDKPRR
Experimental: as §1

[16] = test system: wound healing in the db/db mouse; settings: cited from earlier work
[17] = peptide-coated plates, 30 min at 37° C., without EDTA

FGF-2, sequence (P09038 143-288): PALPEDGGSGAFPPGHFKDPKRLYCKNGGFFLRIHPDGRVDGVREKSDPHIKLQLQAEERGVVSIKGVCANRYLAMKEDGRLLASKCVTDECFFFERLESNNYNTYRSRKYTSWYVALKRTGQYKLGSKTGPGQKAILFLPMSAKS

GCGGSLRPAPPPISGGGYRARPAKAAATQKKVERKAPDA [FgHBD]
binding to heparin [1]: bind to heparin

RLVFALGTDGKKLRIKSKEKCNDGK [α33043-3067, laminin α3 chain LG4-derived peptide, 25 aa]
binding to heparin ([2]; ELISA, peptide-coated plate, 10 μg/mL biotinylated heparin): bound to heparin
Interaction with Heparin ([2]; summary Table 2): ++
degree of migration of HUVEC cells [3]: did not increase the degree of cell migration
binding to VEGF-A165 [4]: bound
binding to PDGF-BB [5]: bound
HUVEC attachment in the presence of EDTA ([6]; peptide-coated plates, 30 min, 5 mM EDTA): even in the presence of EDTA
HUVEC attachment [6, 17]: promoted HUVEC attachment
Cell adhesion HUVECs ([6]; summary Table 2): ++
fibroblast attachment [7, 17]: enhancement of fibroblast attachment
Cell adhesion Fibroblasts ([7]; summary Table 2): ++
binding to FGF-2 [8]: bound
binding to PlGF-2 [9]: bound
Interaction with GFs [10]: ++
binding to recombinant syndecans (syndecan 1-4) ([11]; ELISA, peptide-coated plate, 1 μg/mL syndecan): significant binding
Interaction with Syndecans ([11]; summary Table 2): ++

B1: α32928-3150: recombinant human laminin alpha 3 LG domain Ser2928-Cys3150 (linker domain and LG4 domain), 6 His (protein)
chain: HHHHHHSLNKPPFLMLLKGSTRFNKTKTFRINQLLQDTPVASPRSVKVWQDACSPLPKTQANHGALQFGDIPTSHLLFKLPQELLKPRSQFAVDMQTTSSRGLVFHTGTKNSFMALYLSKGRLVFALGTDGKKLRIKSKEKCNDGKWHTVVFGHDGEKGRLVVDGLRAREGSLPGNSTISIRAPVYLGSPPSGKPKSLPTNSFVGCLKNFQLDSKPLYTPSSSFGVSSC
Kd [12]: 1.2 nM
Kd [13]: 10.2 nM
binding to VEGF-A165 [4]: bound
binding to PDGF-BB [5]: bound
binding to PlGF-1 [14]: did not show any binding
binding to FGF-2 [8]: bound
binding to PlGF-2 [9]: bound
binding to VEGF-A121 [15]: did not show any binding

B2: VEGF-A165: vascular endothelial growth factor-A165, recombinant (PeproTech) (protein)
chain: APMAEGGGQNHHEVVKFMDVYQRSYCHPIETLVDIFQEYPDEIEYIFKPSCVPLMRCGGCCNDEGLECVPTEESNITMQIMRIKPHQGQHIGEMSFLQHNKCECRPKKDRARQENPCGPCSERRKHLFVQDPQTCKCSCKNTDSRCKARQLELNERTCRCDKPRR
degree of migration of HUVEC cells [3]: increases the degree of migration
wound healing in the db/db mouse ([16]; 20 μg per wound applied topically for five consecutive days): promote wound healing

B3: PDGF-BB: platelet-derived growth factor-BB; Regranex in the clinic (protein)
chain: SLGSLTIAEPAMIAECKTRTEVFEISRRLIDRTNANFLVWPPCVEVQRCSGCCNNRNVQCRPTQVQLRPVQVRKIEIVRKKPIFKKATVTLEDHLACKCETVAAARPVT
wound healing in the db/db mouse ([16]; 10 μg per wound): did not significantly enhance wound healing

B4: LamLG4: laminin α-chain LG4 domain used as growth factor-binding domain (protein)
chain: SLNKPPFLMLLKGSTRFNKTKTFRINQLLQDTPVASPRSVKVWQDACSPLPKTQANHGALQFGDIPTSHLLFKLPQELLKPRSQFAVDMQTTSSRGLVFHTGTKNSFMALYLSKGRLVFALGTDGKKLRIKSKEKCNDGKWHTVVFGHDGEKGRLVVDGLRAREGSLPGNSTISIRAPVYLGSPPSGKPKSLPTNSFVGCLKNFQLDSKPLYTPSSSFGVSSCTG
binding to heparin [1]: bind to heparin
